Test results taken from the supplement of paper PMC9170038.

Tested on: MS2 coat protein
Assay: apparent KD of MS2 coat protein; designed switch direction (-1 OFF switch, 1 ON switch): -1; higher = weaker reporter binding
Summary of the method: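 Stalled E. coli RNA polymerase transcribed designed RNA switches on Illumina chips, which were then titrated with SNAP-549-labelled MS2 coat protein, doubling from 0.7 or 1.5 nM to 3 µM. Steps lasted from 0.8–1.5 h at the lowest concentration to 10–20 min at the highest. The apparent KD is each design's median over clusters of curve-fitted normalised fluorescence.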

[1] = input ligand: microRNA oligo, concentration not stated
[2] = Eterna round: R95, input ligand: FMN 200 uM
[3] = Eterna round: R95, input ligand: microRNA oligo, concentration not stated
[4] = Eterna round: R95, input ligand: none

Sequence | apparent KD of MS2 coat protein (input ligand: FMN 200 uM) | apparent KD of MS2 coat protein [1] | apparent KD of MS2 coat protein (input ligand: none) | apparent KD of MS2 coat protein [2] | apparent KD of MS2 coat protein [3] | apparent KD of MS2 coat protein [4]
UUAUUGUGAGGAUAUCAGGUGUGCUAGCGUACUGGUACAUCUGAGAAGGCACAUGAGGAUCACCCAUGUUUCUU [JL-ex4-3.22 Brourd mod] (Eterna round: R96, puzzle: Exclusion 4) | 69.6 nM | 18.9 nM | 25 nM |  |  | 
AUAAUUAAUGCAGGAUAUCAGCACGUGUAGUGCUGAGAAGGGCACAUGAGGAUCACCCAUGUGAUCAAUUAAUAUUAAUAUUAU [ENG1/11-D3] (Eterna round: R96, puzzle: Exclusion NG 1) |  | 48.4 nM |  |  |  | 
GGCAAACAUGAGGAUCACCCAUGUCAGGAUAUUAGGCGAUCGUCGAUAGACGAUAGCCUGAGAAGGGACAUGCC [Mat - Exclusion 1 - Eli Mod - D16] (Eterna round: R97, puzzle: Exclusion 1) | 391 nM |  | 85.2 nM |  |  | 
AGAUGGCGAGGAUAUACAUGAGGAUCACCCAUGUGAGAUAAAAUAGUGAGGAAGAAAAGUAGAAGGCGCUGUCA [Mat - Exclusion 3 - Mod of Salish D15] (puzzle: Exclusion 3) |  |  |  | 268 nM | 58.1 nM | 73 nM
AAUGCUGGUGUGAGGAUAUCAGCUGAAGAACAGAAUGAGAAGGCACAUGAGGAUCACCCAUGUAAAAGAAUAAA [Atbelaqu] (Eterna round: R97, puzzle: Brourd's mod of Exclusion 4) | 35.9 nM |  | 25.6 nM |  |  | 
CGUGACUCAGGAUAUUCAUAAUAUCACAUGAGGAUCACCCAUGUCCAGCGAAAGCUGGAGGGAGAAGGGAGUCACG [Fiskers Ex 5 - 37] (puzzle: Exclusion 5) |  |  |  | 56.7 nM | 151 nM | 99.6 nM
AGUGGCCGAGGAUAUACAUGAGGAUCACCCAUGUUUUAUGUUGAAACGUUAGCGGCCUGUAGAAGGCGGACCUU [Eternabot (L2) Solution 76] (Eterna round: R97, puzzle: Exclusion 3) | 17.5 nM |  | 19.3 nM |  |  | 
AGUCGGUCAGGAUAUGCAAACGUAGACAUGAGGAUCACCCAUGUAACGUGGGCCUGGUUUGUAGAAGGGACGAGCA [EX5 #85] (Eterna round: R97, puzzle: Exclusion 5) | 38.2 nM |  | 28.2 nM |  |  | 
AGAUGCUCGAGUCAACAUGAGGAUCACCCAUGUACAGUUAAUGAGGAUAUCUGAGACAAAUAGUAGGAGAAGGCGUGAACAUGA [Ex NG3 #12] (Eterna round: R96, puzzle: Exclusion NG 3) | 32.1 nM | 69 nM | 39.6 nM |  |  | 
GCUAGCCAUGUCAGGAUAUGCUGUACCUUGGUACAGCAGAAGGGACAUGAGGAUCACCCAUGUGCCUAGCUAGC [JL-BMX4-4.03] (Eterna round: R97, puzzle: Brourd's mod of Exclusion 4) | 197 nM |  | 27.1 nM |  |  | 
AGCCAAGCAGGAUAUGCCCGGGAUAACAUGAGGAUCACCCAUGUGACCGAUUGAUGUCCUGCAGAAGGGCUUGGGA [Erxesoan] (Eterna round: R96, puzzle: Exclusion 5) | 82.4 nM | 11.4 nM | 16.9 nM |  |  | 
AAGAAACAGCUAGGAUAUCAGACCAACAUGAGGAUCACCCAUGUCAAGGUCUUUCUUAGUAGGUUUGAGAAGGAGCCAUAAAUA [Xelequriqu] (Eterna round: R96, puzzle: Exclusion NG 2) | 11.7 nM | 9.11 nM | 11.2 nM |  |  | 
GUCCUGGACUAUCACAAGCACAUGAGGAUCACCCAUGUCAUGGGUAGAUCCCUAAAUAAAGAUACUGCUCGUCUUAU [Cac sensor turnoff var1 sub6] (Eterna round: R97, puzzle: Sensor, turn-off variant 1) | 160 nM |  | 300 nM |  |  | 
GCCAGAGCAGGAUAUUUAUAUUAUCACAUGAGGAUCACCCAUGUCCAGCGAAAGCUGGAGGGAGAAGGGCUCUGGC [Fiskers Ex 5 - 25] (puzzle: Exclusion 5) |  |  |  | 121 nM | 190 nM | 250 nM
AUUUUAAUAUAGGAUAUCGAAAUUAUUAUUUAACGAGAAGGAUAAACAUGAGGAUCACCCAUGUGGUAUCAUGG [JMFs Solution 1] (puzzle: Exclusion 6) |  |  |  | 138 nM | 134 nM | 196 nM
UAUUCGCAAGCAAAUGGGUACAUGAGGAUCACCCAUGUGCUCGUCUUAUAAGGUACUGUGACGAAAGUCACGGUACC [mod--Eli9] (Eterna round: R97, puzzle: Sensor, turn-off variant 1) | 20.9 nM |  | 20.3 nM |  |  | 
UACAUGAGGAUCACCCAUGUUUUGUCGUGUAUGGUAUUUAUCUAGGAUAUCAGUUUAUUUAUUUAUGAGAAGGAGAAUAUUAAU [JMF's solution 7] (Eterna round: R96, puzzle: Exclusion NG 3) | 28 nM | 22.4 nM | 32.7 nM |  |  | 
GAUAGAGCAGGAUAUUCAAUAUAUCACAUGAGGAUCACCCAUGUCCAGCGAAAGCUGGAGGGAGAAGGGCUCUAUC [Mat - Exclusion 5 - Eli mod - D99] (puzzle: Exclusion 5) |  |  |  | 77.6 nM | 366 nM | 262 nM
CAUCUGUGAGGAUAUGGUGAGUAGUGCCUGAGCGCUGCUCACCAGAAGGCACAUGAGGAUCACCCAUGUAUGAA [Mat - Exclusion 4 - Mod of JL - D1] (puzzle: Exclusion 4) |  |  |  |  | 46.9 nM | 
CUGGUCCGAGGAUAUUUUAUGUGAUACAUGAGGAUCACCCAUGUUAUAUGAUGGAUGUUAAAAGAAGGCGGACUAG [Mat - Exclusion 5 - JL mod - D80] (puzzle: Exclusion 5) |  |  |  | 77 nM | 102 nM | 114 nM
GUAAAACAUGUAGGAUAUGCGUGGCAAAGCUAUGCAGAAGGACAUGAGGAUCACCCAUGUUAAAGCGUCUGCGUACAGAUGCAA [Mat - Exclusion NG 1 - Mod of JL - D95] (Eterna round: R96, puzzle: Exclusion NG 1) | 143 nM | 30.5 nM | 30.7 nM |  |  | 
GGUGAAGCAGGAUAUGUAUCGGCAUACAUGAGGAUCACCCAUGUCAUGUAGAUACCGCAUAUAGAAGGGCUUCACC [Exclusion 5 (FMN-MS2 slide v.5)] (Eterna round: R97, puzzle: Exclusion 5) | 41.1 nM |  | 16.9 nM |  |  | 
GGCAUAAACGAGGAUAUCGUAUCGGAAACGAUACGAGAAGGUGUAACAUGAGGAUCACCCAUGUUCCUCAAGCC [Mat - Exclusion 6 - Eli Mod - D58] (puzzle: Exclusion 6) |  |  |  |  | 38.1 nM | 
GCAUGCUUUUUGCUCGUUUACAUGAGGAUCACCCAUGUACAUGGGUGAGCCGCAUGUACAGAAAGGAAAACUUUUUG [Alacar Attempt 2] (Eterna round: R97, puzzle: Sensor, turn-off variant 1) | 21.1 nM |  | 24.7 nM |  |  | 
GUCAACGCAGGAUAUUAGAACUUUUACAUGAGGAUCACCCAUGUUAAUUGGGUCUAAGAAUAAGAAGGGCGAUGAA [JR_Ex5_Sub011] (Eterna round: R97, puzzle: Exclusion 5) | 15.8 nM |  | 14 nM |  |  | 
